T1: full-length human recombinant IGFBP-4
T1 chain: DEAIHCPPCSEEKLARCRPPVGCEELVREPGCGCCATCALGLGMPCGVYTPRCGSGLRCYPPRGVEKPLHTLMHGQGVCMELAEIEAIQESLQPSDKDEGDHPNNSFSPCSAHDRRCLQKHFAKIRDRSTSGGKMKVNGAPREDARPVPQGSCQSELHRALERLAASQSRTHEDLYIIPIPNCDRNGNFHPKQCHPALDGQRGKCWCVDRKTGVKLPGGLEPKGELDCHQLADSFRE

B1: atherosclerotic form of PAPP-A (protein)
chain: EARGATEEPSPPSRALYFSGRGEQLRLRADLELPRDAFTLQVWLRAEGGQRSPAVITGLYDKCSYISRDRGWVVGIHTISDQDNKDPRYFFSLKTDRARQVTTINAHRSYLPGQWVYLAATYDGQFMKLYVNGAQVATSGEQVGGIFSPLTQKCKVLMLGGSALNHNYRGYIEHFSLWKVARTQREILSDMETHGAHTALPQLLLQENWDNVKHAWSPMKDGSSPKVEFSNAHGFLLDTSLEPPLCGQTLCDNTEVIASYNQLSSFRQPKVVRYRVVNLYEDDHKNPTVTREQVDFQHHQLAEAFKQYNISWELDVLEVSNSSLRRRLILANCDISKIGDENCDPECNHTLTGHDGGDCRHLRHPAFVKKQHNGVCDMDCNYERFNFDGGECCDPEITNVTQTCFDPDSPHRAYLDVNELKNILKLDGSTHLNIFFAKSSEEELAGVATWPWDKEALMHLGGIVLNPSFYGMPGHTHTMIHEIGHSLGLYHVFRGISEIQSCSDPCMETEPSFETGDLCNDTNPAPKHKSCGDPGPGNDTCGFHSFFNTPYNNFMSYADDDCTDSFTPNQVARMHCYLDLVYQGWQPSRKPAPVALAPQVLGHTTDSVTLEWFPPIDGHFFERELGSACHLCLEGRILVQYASNASSPMPCSPSGHWSPREAEGHPDVEQPCKSSVRTWSPNSAVNPHTVPPACPEPQGCYLELEFLYPLVPESLTIWVTFVSTDWDSSGAVNDIKLLAVSGKNISLGPQNVFCDVPLTIRLWDVGEEVYGIQIYTLDEHLEIDAAMLTSTADTPLCLQCKPLKYKVVRDPPLQMDVASILHLNRKFVDMDLNLGSVYQYWVITISGTEESEPSPAVTYIHGSGYCGDGIIQKDQGEQCDDMNKINGDGCSLFCRQEVSFNCIDEPSRCYFHDGDGVCEEFEQKTSIKDCGVYTPQGFLDQWASNASVSHQDQQCPGWVIIGQPAASQVCRTKVIDLSEGISQHAWYPCTISYPYSQLAQTTFWLRAYFSQPMVAAAVIVHLVTDGTYYGDQKQETISVQLLDTKDQSHDLGLHVLSCRNNPLIIPVVHDLSQPFYHSQAVRVSFSSPLVAISGVALRSFDNFDPVTLSSCQRGETYSPAEQSCVHFACEKTDCPELAVENASLNCSSSDRYHGAQCTVSCRTGYVLQIRRDDELIKSQTGPSVTVTCTEGKWNKQVACEPVDCSIPDHHQVYAASFSCPEGTTFGSQCSFQCRHPAQLKGNNSLLTCMEDGLWSFPEALCELMCLAPPPVPNADLQTARCRENKHKVGSFCKYKCKPGYHVPGSSRKSKKRAFKTQCTQDGSWQEGACVPVTCDPPPPKFHGLYQCTNGFQFNSECRIKCEDSDASQGLGSNVIHCRKDGTWNGSFHVCQEMQGQCSVPNELNSNLKLQCPDGYAIGSECATSCLDHNSESIILPMNVTVRDIPHWLNPTRVERVVCTAGLKWYPHPALIHCVKGCEPFMGDNYCDAINNRAFCNYDGGDCCTSTVKTKKVTPFPMSCDLQGDCACRDPQAQEHSRKDLRGYSHG
B2: human recombinant PAPP-A (protein)
chain: B1 chain

Tests used:
[1] = molecular target: T1, full-length human recombinant IGFBP-4
[2] = molecular target: full-length human recombinant IGFBP-5
Chain of full-length human recombinant IGFBP-5 (chain, as listed by the source): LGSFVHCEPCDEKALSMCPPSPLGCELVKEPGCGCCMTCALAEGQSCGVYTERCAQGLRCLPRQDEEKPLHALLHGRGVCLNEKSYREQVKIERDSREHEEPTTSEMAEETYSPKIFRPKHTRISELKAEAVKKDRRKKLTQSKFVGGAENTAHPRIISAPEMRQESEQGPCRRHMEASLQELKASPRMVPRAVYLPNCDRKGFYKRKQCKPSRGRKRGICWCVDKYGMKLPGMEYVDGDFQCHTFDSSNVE

Row | Protein | proteolytic cleavage of IGFBP-4, Western blotting [1] | proteolytic cleavage of IGFBP-5, SDS-PAGE with Coomassie staining [2]
1 | B1 | atherosclerotic form of PAPP-A was shown to cleave IGFBP-4 with the same efficiency as recombinant PAPP-A | –
2 | B2 | Western blotting detection of proteolytic fragments of IGFBP-4 demonstrating PAPP-A protease activity | PAPP-A-dependent cleavage of IGFBP-5 determined by sodium dodecyl sulphate polyacrylamide gel electrophoresis

Reference: US20140017714
